The labels stand for the following.
B1: TPR t1 (parent)
chain: GACCAAUCUGCCCUCAGAGCUCGAGAACAUCUUCGGAUGCAGAGGAGGCAGGCUUCGGUGGCGCGAUAGCGCCAACGUCCUCAACCUCCAAUGCAUCCCACCACAUGAUGAUGCCUGAAGAGCCUUGGUUUUUUG

In this data set the parent is B1. As to the kind of experiment: polymerase ribozyme fitness, log enrichment relative to wild type (log ratio); higher = more active; in vitro selection for triplet polymerase activity. In a few lines:
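PCR was used to build mutant libraries for each subunit of a heterodimeric triplet polymerase ribozyme, which were then transcribed. A single in vitro selection round, in triplicate, used a frozen incubation at −7 °C and recovered extended constructs by gel excision, streptavidin beads and RT-PCR. Fitness is the logarithm of genotype enrichment relative to wild-type enrichment, averaged over replicates with inverse-variance weights. The logarithm is base 2, and after Illumina sequencing only genotypes with ≥10 input reads and ≥1 read per output were kept.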
GACCAAUCUGCCCUCAGAGCUCGAGAACAUCUUCGGAUGCAGAGGAGGUAGGCUUCGGUGGCGCGAUAGCGCCAACGUCUUCAACCUCCAAUGCAUCCCACCACAUGAUGAUGUCUGAAGAUCCUUGGUUUUUUG [C49U C80U C114U G122U]: the “polymerase ribozyme fitness (log ratio)” value was -5.64.

Turning to GACCAAUCUGCCCUCAGAGCUCGAGAACAUCUUCGGAUGCAGAGGAGGUAGGCUUCGGUGGCGCGAUAGCGCCAACGUCCUCAACCUCCAAUGCAUCCCACAACAUGAUGAUGCCUGAAGAGCCUUGGUUUUUUG [C49U C102A], the “polymerase ribozyme fitness (log ratio)” value is -3.24. Take GACCAAUCUGCCCUCAGAGCUCGAGAACAUCUUCGGAUGCAGAGGAGGUAGGCUUCGGUGGCGCGAUAGCGCCAACGUCCUCAAGCUCCAAUGCAUCCCACCACAUGAUGAUGCCUGAAGAGCCUUGGUUUUUUG [C49U C85G]: the “polymerase ribozyme fitness (log ratio)” value was -2.2.

With GACCAAUCUGCCCUCAGAGCUCGAGAACAUCUUCGGAUGCAGAGGAGGUAGGCUUCGGUGGCGCGAUAGCGCUUACGUCCUCAACCUCCAAUGCAUCCCACCACAUGAUGAUGCCUGAAGAGCCUUGGUUUUUUG [C49U C73U A74U], the “polymerase ribozyme fitness (log ratio)” value was -0.941. Turning to GACCAAUCUGCCCUCAGAGCUCGAGAACAUCUUCGGAUGCAGAGGAGGUAGGCUUCGGUGGCGCGAUAGCGCCAACGUCCUCAACCUCCAAUGUAUCCCACCACAUGAUGAUGCCUGAAGAGCCUUGGUUUUUUG [C49U C94U], the “polymerase ribozyme fitness (log ratio)” value was -1.08. With GACCAAUCUGCCCUCAGAGCUCGAGAACAUCUUCGGAUGCAGAGGAGGUAGGCUUCGGUGGCGCGAUAGCGCCAACGUCCUCAACCUCCAAUGCAUGCCACCACAUGAUGAUGCCUGAAGAGCCUUGGUUUUUUG [C49U C97G], the “polymerase ribozyme fitness (log ratio)” value was -5.89.

With GACCAAUCUGCCCUCAGAGCUCGAGAACAUCUUCGGAUGCAGAGGAGGUAGGCUUCGGUGGCGCGAUAGCGCCAACGUCCUCAACCUCCAAUGCAUCCCACCAUAUGAUGAUGCCUGAAGAGCCUUGGUUUUUUG [C49U C104U], the “polymerase ribozyme fitness (log ratio)” value was -0.182. GACCAAUCUGCCCUCAGAGCUCGAGAACAUCUUCGGAUGCAGAGGAGGUAGGCUUCGGUGGCGCGAUAGCGCCAACGUCCUGAACCUCCAAUGCACUCCACCACAUGAUGAUGCUAGAAGAGCCUUGGUUUUUUG [C49U C82G U96C C97U C115U U116A]: the “polymerase ribozyme fitness (log ratio)” value is -6.51. For GACCAAUCUGCCCUCAGAGCUCGAGAACAUCUUCGGAUGCAGAGGAGGUAGGCUUCGGUGGCGCGAUAGCGCCAACGUCCUCAACCUCCAAUGCAUCCCAGCACAUGAUGAUGCCUGAAGAGCCUUGGUUUUUUG [C49U C101G], the “polymerase ribozyme fitness (log ratio)” value is -2.04. In the case of GACCAAUCUGCCCUCAGAGCUCGAGAACAUCUUCGGAUGCAGAGGAGGUAGGCUUCGGUGGCGCGAUAGCGCUAACGUCCGCAACCUCCAAUGCACCCCACCACAUGAUGAUGCCUGAAGAGCCUUGGUUUUUUG [C49U C73U U81G U96C], the “polymerase ribozyme fitness (log ratio)” value was -4.51. For the variant GACCAAUCUGCCCUCAGAGCUCGAGAACAUCUUCGGAUGCAGAGGAGGUAGGCUUCGGUGGCGCGAUAGCGCCAACGUCCUCAACCUCGAAUGCAUCCCACCACAUGAUGAUGCCUGAAGAGCCUUGGUUUUUUG [C49U C89G], the “polymerase ribozyme fitness (log ratio)” value is -1.74.

GACCAAUCUGCCCUCAGAGCUCGAGAACAUCUUCGGAUGCAGAGGAGGUAGGCUUCGGUGGCGCGAUAGCGCCAACGUCCUCAACCUCCAAUGCAUCUCACCACAUGAUGAUGCCUGAAGAGCCGUGGUUUUUUG [C49U C98U U125G]: the “polymerase ribozyme fitness (log ratio)” value is -2.62. For GACCAAUCUGCCCUCAGAGCUCGAGAACAUCUUCGGAUGCAGAGGAGGUAGGCUUCGGUGGCGCGAUAGCGCCAACGUCCUCAACCUCCAAUGCAUCCCACCACAUGAUGAUGGCUGAAGAGCCUUGGUUUUUUG [C49U C114G], the “polymerase ribozyme fitness (log ratio)” value is -3.71. On to GACCAAUCUGCCCUCAGAGCUCGAGAACAUCUUCGGAUGCAGAGGAGGUAGGCUUCGGUGGCGCGAUAGCGCCAACGUCCUCAACCUCCAAUGCAUCCCACCACAUGAUGAUGACUGAAGAGCCUUGGUUUUUUG [C49U C114A], for which the “polymerase ribozyme fitness (log ratio)” value is -2.34. With GACCAAUCUGCCCUCAGAGCUCGAGAACAUCUUCGGAUGCAGAGGAGGUAGGCUUCGGUGGCGCGAUAGCGCCAACGUCCUCAACCUCCAAUGCAUCCCACCACAUGAUGAUGUCUGAAGAGCCUUGGUUUUUUG [C49U C114U], the “polymerase ribozyme fitness (log ratio)” value was -2.25.

For the variant GACCAAUCUGCCCUCAGAGCUCGAGAACAUCUUCGGAUGCAGAGGAGGUAGGCUUCGGUGGCGCGAUAGCGCCAACGUCCUCAACCUCCAAUGUAUCCCACCACAUGAUGUUGCCUGAAGAGCCUUGGUUUUUUG [C49U C94U A111U], the “polymerase ribozyme fitness (log ratio)” value was -5.05. In the case of GACCAAUCUGCCCUCAGAGCUCGAGAACAUCUUCGGAUGCAGAGGAGGUAGGCUUCGGUGGCGCGAUAGCGCCAACGUCCUCAACCUCCAAUGCAUCCCACCACAUGAUGAUGCGUGAAGAGCCUUGGUUUUUUG [C49U C115G], the “polymerase ribozyme fitness (log ratio)” value is -2.23. Take GACCAAUCUGCCCUCAGAGCUCGAGAACAUCUUCGGAUGCAGAGGAGGUAGGCUUCGGUGGCGCGAUAGCGCCAACGUCACCAACCUCCAAUGCAUCCCACCACAAGAUGAAGCCUGAAGAGCCUUGGUUUUUUG [C49U C80A U81C U106A U112A]: the “polymerase ribozyme fitness (log ratio)” value is -4.56. Consider GACCAAUCUGCCCUCAGAGCUCGAGAACAUCUUCGGAUGCAGAGGAGGUAGGCUUCGGUGGCGCGAUAGCGCAAACGUCCGCAACCUCCAAUGCAUCCCACCACAUGAUGAUGCCUGAAGAGCCUUGGUUUUUUG [C49U C73A U81G], for which the “polymerase ribozyme fitness (log ratio)” value was -2.45. GACCAAUCUGCCCUCAGAGCUCGAGAACAUCUUCGGAUGCAGAGGAGGUAGGCUUCGGUGGCGCGAUAGCGCCAACGUCCUCAACUUGCAAUGCAUCCCACCACAUGAUGAUGCGUGAAGAGCCUUGGUUUUUUG [C49U C86U C88G C115G]: the “polymerase ribozyme fitness (log ratio)” value was -4.09.

In the case of GACCAAUCUGCCCUCAGAGCUCGAGAACAUCUUCGGAUGCAGAGGAGGUAGGCUUCGGUGGCGCGAUAGCGCCAACGUCCUCAACCUCCAAUGCAUCACACCACAUGAUGAUGCCUGAAGAGCCUUGGUUUUUUG [C49U C98A], the “polymerase ribozyme fitness (log ratio)” value is -5.99.

The values above are taken from the RNAGym collection of RNA variant scans (doi:10.1073/pnas.2313332121).
